Patent US20130189278A1 (Merck Sharp & Dohme, published 2013)

Molecular target: recombinant human PCSK9, V5-, His-tagged (human, UniProt Q8NBP7 31-692)
Experiment: cell-based or functional assay

recombinant human PCSK9, V5-, His-tagged, sequence (Q8NBP7 31-692 limits assumed): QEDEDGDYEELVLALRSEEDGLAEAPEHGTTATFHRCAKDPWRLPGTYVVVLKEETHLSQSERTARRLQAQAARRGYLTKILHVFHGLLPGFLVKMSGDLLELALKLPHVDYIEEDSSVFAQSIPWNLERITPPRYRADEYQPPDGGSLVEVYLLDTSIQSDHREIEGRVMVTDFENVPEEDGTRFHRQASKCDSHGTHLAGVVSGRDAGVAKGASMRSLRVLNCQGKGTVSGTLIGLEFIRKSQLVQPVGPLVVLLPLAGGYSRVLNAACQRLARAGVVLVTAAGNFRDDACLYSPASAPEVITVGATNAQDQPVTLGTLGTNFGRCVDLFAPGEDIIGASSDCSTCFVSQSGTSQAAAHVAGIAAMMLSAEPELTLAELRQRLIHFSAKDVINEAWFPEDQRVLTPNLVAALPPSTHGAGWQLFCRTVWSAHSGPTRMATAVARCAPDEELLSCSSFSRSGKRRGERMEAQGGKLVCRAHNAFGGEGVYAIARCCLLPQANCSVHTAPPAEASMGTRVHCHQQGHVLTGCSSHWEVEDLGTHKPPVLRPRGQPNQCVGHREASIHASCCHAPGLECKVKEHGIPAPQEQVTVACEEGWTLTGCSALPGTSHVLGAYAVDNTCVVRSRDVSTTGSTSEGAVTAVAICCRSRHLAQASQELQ

IC50, Exopolar assay: reversal of PCSK9-dependent loss of cellular diI-LDL uptake, Fab titrated against fixed PCSK9 (25 µg/ml): 269 nM
B1: 3CX3D02 (Fab, V domains shown)
VH: QVQLVQSGAEVKKPGESLKISCKGSGYSFTNSWIGWVRQMPGKGLEWMGIIYPSDSYTIYSPSFQGQVTISADKSISTAYLQWSSLKASDTAMYYCARGGGYYYALMDVWAQGTLVTVSS
VL: DIQMTQSPSSLSASVGDRVTITCRASQTISTWLNWYQQKPGKAPKLLIYAASSLQSGVPSRFSGSGSGTDFTLTISSLQPEDFATYYCLQDSSLPLTFGQGTKVEIKR
